Laboratory results published in US20220195043A1 (BEIJING MABWORKS BIOTECH, published 2022).

What was measured:
[1] = biological target: T1, human TCR/CD3 complex on cell surfaces (primary human CD4+ T cells; Jurkat cells; human PBMCs) (human, UniProt P07766 23-207); experiment: FACS on primary human T cells, PE goat anti-human IgG, MFI
T1 construct: whole, on cells; Native complex on cells; the γ, δ, ζ and TCR chains of the complex are present on the cells too; also called human CD3 complexes on cell surfaces; human CD3+ T cells

[2] = biological target: T2, human CD3ε-his (Cat #:10977-H08s, SinoBiological, China) (human, UniProt P07766 23-126); experiment: ELISA: plate coated with human CD3ε-his, antibody titrated, HRP goat anti-human IgG, OD450
T2 construct: Bought protein; also called human CD3ε protein; recombinant human CD3ε; not shown: his tag

[3] = biological target: T3, monkey CD3ε-his (Cat #: 90047-C08H, SinoBiological, China) (monkey, UniProt Q95LI5 22-117); experiment: ELISA: plate coated with monkey CD3ε-his, antibody titrated, HRP goat anti-human IgG, OD450
T3 construct: Bought protein; also called monkey CD3ε protein; recombinant monkey CD3ε
T3 sequence: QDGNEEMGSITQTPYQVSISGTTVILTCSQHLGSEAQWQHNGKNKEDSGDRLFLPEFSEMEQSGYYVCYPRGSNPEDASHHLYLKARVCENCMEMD

T2 sequence (P07766 23-126 limits assumed): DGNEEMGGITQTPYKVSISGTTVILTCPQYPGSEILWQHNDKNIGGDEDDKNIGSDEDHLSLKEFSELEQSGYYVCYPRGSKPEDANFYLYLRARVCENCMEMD
T1 sequence (P07766 23-207, one chain of several): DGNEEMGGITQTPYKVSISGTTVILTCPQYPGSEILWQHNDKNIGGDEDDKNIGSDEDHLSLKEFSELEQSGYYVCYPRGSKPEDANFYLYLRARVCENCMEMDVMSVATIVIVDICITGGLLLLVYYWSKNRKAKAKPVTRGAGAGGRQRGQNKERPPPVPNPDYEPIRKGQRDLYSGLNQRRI

B1: humanized anti-CD3 antibody 15H3L3 (human IgG1, light constant region SEQ ID NO: 23) (antibody)
heavy: not shown
light: QAVVTQEPSLTVSPGGTVTLTCQSSTGAVTTNNYANWVQQKPGHAFRGLIGGTKQRAPGVPARFSGSLLGGKAALTLSGVQPEDEAEYYCVLWYSNLWVFGGGTKLTVLGQPKAAPSVTLFPPSSEELQANKATLVCLISDFYPGAVTVAWKADSSPVKAGVETTTPSKQSNNKYAASSYLSLTPEQWKSHRSYSCQVTHEGSTVEKTVAPTECS
EC50 (read off the curve) [1]: ~0.2 µg/mL
EC50 (read off the curve) [2]: ~300 µg/mL
EC50 (read off the curve) [3]: ~300 µg/mL
